Earlier results on eleven substances are cited in PMC9837045.

Where “and” joins values, the source holds several entries; their conditions need not be identical. Equal entries are not always repeated. Where two headings read alike, the source gives them in different places.

One data set deals with Activin A (Homo sapiens) (UniProt P08476). Kind of data set: SPR.
The target of data set [1] is BMP9 (Homo sapiens) (UniProt Q9UK05). Kind of data set: SPR. (In general: Surface plasmon resonance follows binding to a sensor surface in real time, without labels.)
UniProt Q9UK05, sequence (Q9UK05 320-429): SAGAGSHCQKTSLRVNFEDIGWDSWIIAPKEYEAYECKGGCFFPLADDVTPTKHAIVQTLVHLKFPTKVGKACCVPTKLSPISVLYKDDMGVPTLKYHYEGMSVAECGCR
The target is the same in data set [2].
Data set [3] shares this target. This is another data set of the same source.
Data set [4] has the same target. This is another data set of the same source.

UniProt P08476, sequence (P08476 311-426): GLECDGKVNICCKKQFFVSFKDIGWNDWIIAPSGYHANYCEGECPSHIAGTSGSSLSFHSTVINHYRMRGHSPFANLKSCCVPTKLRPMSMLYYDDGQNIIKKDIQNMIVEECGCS

What is called Kd is the constant that tells how readily two partners part at equilibrium. Regarding (ACVR2B)2-Fc ECD (from UniProt Q13705), in the data set with Activin A (Homo sapiens), the Kd was 0.0125 nM.

Turning to ACVR2A ECD (from UniProt P27037), the dissociation constant Kd with Activin A (Homo sapiens) is 5.7 nM.

As for ACVR2A-Fc ECD (from UniProt P27037), the dissociation constant Kd with Activin A (Homo sapiens) was 0.13 nM.

Take ACVR2B ECD (from UniProt Q13705): the Kd with Activin A (Homo sapiens) was 1.1 nM.

For “ACVR2B-Fc (single ECD) ECD (from UniProt Q13705)”, in the data set with Activin A (Homo sapiens), the Kd is 0.108 nM.

Consider ACVR2B-Fc ECD (from UniProt Q13705), for which the Kd with Activin A (Homo sapiens) is 0.0092 nM; with BMP9 (Homo sapiens) [1], 0.033 nM and 0.116 nM.

With ALK1-ECD ECD (from UniProt P37023), the Kd with BMP9 (Homo sapiens) [2] is 0.0716 nM.

As to ALK1-Fc ECD (from UniProt P37023), the Kd with BMP9 (Homo sapiens) [3] was 0.0481 nM and 0.0455 nM; with BMP9 (Homo sapiens) [1] it was 0.0313 nM.

As to ALK2-Fc ECD (from UniProt Q04771), the Kd with BMP9 (Homo sapiens) [4] is 83 nM.

For the substance BMPR2 ECD (from UniProt Q13873), the Kd with Activin A (Homo sapiens) is 59 nM.

BMPR2-Fc ECD (from UniProt Q13873): in the data set with Activin A (Homo sapiens), the dissociation constant (Kd) was 14 nM.
